T1: GST-RPN10 (residues 201–386), wild type (Arabidopsis thaliana, UniProt P55034 201-386)
T1 sequence (looked up): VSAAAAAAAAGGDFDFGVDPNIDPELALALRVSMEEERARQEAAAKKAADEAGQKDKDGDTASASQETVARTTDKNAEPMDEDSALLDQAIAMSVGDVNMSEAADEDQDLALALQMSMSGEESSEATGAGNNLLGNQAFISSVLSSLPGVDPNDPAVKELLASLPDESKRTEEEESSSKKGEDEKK

B1: His6-ATG8e (natural protein, Arabidopsis thaliana, UniProt Q8S926 1-118, looked up)
chain: MNKGSIFKMDNDFEKRKAEAGRIREKYPDRIPVIVEKAEKSEVPNIDKKKYLVPSDLTVGQFVYVIRKRIKLSAEKAIFIFVDNVLPPTGELMSSVYEDKKDEDGFLYITYSGENTFG
B2: His6-ATG8f (natural protein, Arabidopsis thaliana, UniProt Q8VYK7 1-117, looked up)
chain: MAKSSFKQEHDLEKRRAEAARIREKYPDRIPVIVEKAEKSDIPTIDKKKYLVPADLTVGQFVYVIRKRIKLSAEKAIFIFVDNVLPPAGALMSSVYEEKKDDDGFLYVTYSGENTFG

Experiments:
[1] = molecular target: T1, GST-RPN10 (residues 201–386), wild type; assay: pull-down
[2] = molecular target: T1, GST-RPN10 (residues 201–386), wild type; assay: pull-down; remark: listed apart in the source

Row | Binder | Kd [1] | binding result [2]
1 | B1 | ~5.6 µM | 
2 | B2 |  | binds
